Data reported in patent publication US20090191645A1, “COMPOUNDS AND METHODS FOR MODULATING INTEGRIN ACTIVITY” (Washington University in St. Louis, priority 2008, published 2009).
Entries after “also recorded” stand apart in the source; their conditions may differ.

How the values were obtained:
C32 melanoma cells = test: C32 cell adhesion and spreading on vitronectin; type: cell-based, human; conditions: Vn-coated wells
Protocol: Cell Spreading Assay—Spreading of C32 cells on Vn was performed as described (31) in 24-well tissue culture plates coated with 0.5 μg/ml Vn and blocked with 1% BSA/PBS for 2 hrs at room temperature. C32 cells were plated in HBSS with 2 mM CaCl2 and 2 mM MgCl2 in the presence of 2 mM MnSO4, and indicated amounts of GRGDSP (SEQ ID NO: 19), P2483, P2484, or 4N1K. Cells were allowed to spread for 30 minutes at 37° C., after which the cells were fixed, stained, and photographed.
As an initial approach to testing the function of the putative clasp region of β3 integrins, synthetic peptides were used to mimic the α and β sides of the clasp. It was reasoned that αIIbβ3 is likely to be held in the off state more securely than αvβ3, and thus the αIIb clasp sequence was chosen for these experiments (Table 1). To evaluate the effects of the putative clasp peptides on αvβ3 activation in live cells, adhesion and spreading assays using C32 melanoma cells were performed. […] Not until αvβ3 is activated, e.g. via Mn^++ or CD47 stimulation, does αvβ3-dependent spreading occur (35). The assay was performed in Ca^++/Mg^++ which supports integrin activity, and we used Mn^++ activation of αvβ3 as a positive control (6). The putative clasp peptides were incubated with cells added to the Vn-coated wells and after 30 min at 37° cell attachment and spreading were assessed (FIG. 1).

αIIbβ3 integrin = molecular target: T1, αIIbβ3 integrin (Homo sapiens, UniProt P05106+P08514); test: LIBS antibody binding to human platelets (flow cytometry); type: cell-based; conditions: for LIBS binding to platelets (3 LIBS mAbs): platelets with PGE1 / kept on ice; for D3 LIBS antibody binding to platelets: 100 μM clasp peptide in the presence of RGD
T1 construct: Platelets and megakaryocytes are the only cells to express αIIbβ3 integrin; endogenous in cells; host or cells: washed human platelets from a healthy donor
Protocol: Preparation of Fresh Platelets—Collection of human blood was performed under an approved protocol of the Washington University School of Medicine Human Studies Committee. 30 mL of blood was drawn from a healthy donor into 3% sodium citrate, and centrifuged at 200×g for 10 min. at room temp. to yield platelet-rich plasma (PRP). The PRP was treated with 1 μg/ml prostaglandin E1 (PGE-1) and centrifuged at 500×g for 5 min. The platelet pellet was resuspended in Tyrode's solution (137 mM NaCl, 2.7 mM KCl, 2 mM CaCl2, 1 mM MgCl2, 3.3 mM NaH2PO4, 5.5 mM glucose, 20 mM HEPES, pH 7.4 with 1 mg/ml BSA and 1 μg/ml PGE-1. The platelet suspension was stored on ice for 1 to 48 hr or treated as described below.
(§1) Flow Cytometry—Binding of anti-β3 mAb AP3 and anti-LIBS mAbs LIBS1, LIBS6 and D3 was quantified using a Coulter EPICS flow cytometer. 10^6 cells were washed and resuspended in 100 μl of FACS buffer (1% BSA, 2 mM MgCl2, in PBS) and incubated on ice for 30 minutes. Cells were washed and resuspended in buffer (PBS+2 mM MgCl2 or 1 mM each CaCl2 and MgCl2) along with combinations of 0-1 mM GRGDSP (SEQ ID NO: 19) with 500 μM MnCl2, 100 μM P2483, 100 μM P2484, and 100 μM P2485 or control peptide. Cells were then incubated on ice for 30 minutes. Cells were washed and incubated in 100 μl of buffer (PBS+2 mM MgCl2) containing donkey anti-mouse IgG-FITC at a 1:100 dilution for an additional 30 min. After washing, the cells were diluted to 0.5 ml and analyzed by flow cytometry. Data was analyzed using WinMDI software.
Platelets and megakaryocytes are the only cells to express αIIbβ3 integrin, and thus platelets offer a unique system in which to test the effects of the clasp peptides on β3 integrin activation. They also provide the opportunity to compare the activation response to the clasp peptides of αIIbβ3 vs αvβ3. Several G protein coupled receptors (e.g. those for ADP, thromboxane and thrombin) on platelets can rapidly activate αIIbβ3 via inside-out signaling (2). To eliminate this route of activation platelets were incubated with PGE1, which elevates cyclic AMP levels via Gs, and in some experiments also used apyrase to block activation by leaked ADP (39). In addition, platelets were kept on ice for as long as 24 to 48 hours to ensure metabolic inactivity. While short-term exposure to cold can activate platelets, long term exposure makes platelets refractory to activation (40).

αvβ3 integrin = molecular target: T2, αvβ3 integrin (Homo sapiens, UniProt P05106+P06756); test: LIBS antibody binding to αvβ3 on K562 cells (flow cytometry); type: cell-based; conditions: K562 cells expressing αvβ3; for LIBS1 antibody binding: 100 μM peptide, in the presence of 1 mM RGD peptide, absence of Mn++; for LIBS1, LIBS6 or D3 antibody binding (fluorescence): 1 mM GRGDSP vs LIBS antibody with no RGD peptide
T2 construct: Full length cDNA clones of human αv and β3 integrin subunits were provided by Dr. Scott Blystone; expressed in transfected cells; host or cells: human K562 erythroleukemia cells (ATCC CCL-243), stably expressing αvβ3
T2 sequence (P06756 31-889 limits assumed): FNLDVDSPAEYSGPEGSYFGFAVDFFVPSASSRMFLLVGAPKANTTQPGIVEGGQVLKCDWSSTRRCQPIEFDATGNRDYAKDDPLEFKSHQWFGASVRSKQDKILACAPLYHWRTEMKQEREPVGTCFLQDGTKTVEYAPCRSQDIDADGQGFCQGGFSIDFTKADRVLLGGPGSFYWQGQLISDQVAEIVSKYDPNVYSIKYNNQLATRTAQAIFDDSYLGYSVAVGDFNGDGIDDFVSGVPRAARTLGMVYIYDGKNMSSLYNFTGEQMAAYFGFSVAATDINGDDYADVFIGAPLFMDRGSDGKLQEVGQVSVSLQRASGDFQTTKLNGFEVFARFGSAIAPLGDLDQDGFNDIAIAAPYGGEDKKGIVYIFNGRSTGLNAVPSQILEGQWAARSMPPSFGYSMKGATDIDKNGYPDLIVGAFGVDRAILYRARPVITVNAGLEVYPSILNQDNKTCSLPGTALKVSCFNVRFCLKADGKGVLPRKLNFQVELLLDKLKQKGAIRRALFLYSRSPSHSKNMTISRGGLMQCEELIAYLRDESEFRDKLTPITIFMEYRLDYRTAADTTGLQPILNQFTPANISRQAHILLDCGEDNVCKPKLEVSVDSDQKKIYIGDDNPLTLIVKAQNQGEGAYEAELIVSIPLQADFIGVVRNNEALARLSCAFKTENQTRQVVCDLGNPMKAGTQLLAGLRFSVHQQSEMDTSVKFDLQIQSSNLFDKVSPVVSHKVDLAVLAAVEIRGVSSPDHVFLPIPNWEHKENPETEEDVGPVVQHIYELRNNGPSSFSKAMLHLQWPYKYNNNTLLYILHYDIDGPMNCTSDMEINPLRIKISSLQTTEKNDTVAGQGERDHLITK
T2 sequence (P06756 891-1048 limits assumed): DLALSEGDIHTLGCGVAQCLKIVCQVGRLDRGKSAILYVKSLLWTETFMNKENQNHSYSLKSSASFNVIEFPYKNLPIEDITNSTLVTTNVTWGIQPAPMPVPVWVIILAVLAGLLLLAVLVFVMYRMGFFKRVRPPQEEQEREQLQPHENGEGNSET
T2 sequence (P05106 27-788): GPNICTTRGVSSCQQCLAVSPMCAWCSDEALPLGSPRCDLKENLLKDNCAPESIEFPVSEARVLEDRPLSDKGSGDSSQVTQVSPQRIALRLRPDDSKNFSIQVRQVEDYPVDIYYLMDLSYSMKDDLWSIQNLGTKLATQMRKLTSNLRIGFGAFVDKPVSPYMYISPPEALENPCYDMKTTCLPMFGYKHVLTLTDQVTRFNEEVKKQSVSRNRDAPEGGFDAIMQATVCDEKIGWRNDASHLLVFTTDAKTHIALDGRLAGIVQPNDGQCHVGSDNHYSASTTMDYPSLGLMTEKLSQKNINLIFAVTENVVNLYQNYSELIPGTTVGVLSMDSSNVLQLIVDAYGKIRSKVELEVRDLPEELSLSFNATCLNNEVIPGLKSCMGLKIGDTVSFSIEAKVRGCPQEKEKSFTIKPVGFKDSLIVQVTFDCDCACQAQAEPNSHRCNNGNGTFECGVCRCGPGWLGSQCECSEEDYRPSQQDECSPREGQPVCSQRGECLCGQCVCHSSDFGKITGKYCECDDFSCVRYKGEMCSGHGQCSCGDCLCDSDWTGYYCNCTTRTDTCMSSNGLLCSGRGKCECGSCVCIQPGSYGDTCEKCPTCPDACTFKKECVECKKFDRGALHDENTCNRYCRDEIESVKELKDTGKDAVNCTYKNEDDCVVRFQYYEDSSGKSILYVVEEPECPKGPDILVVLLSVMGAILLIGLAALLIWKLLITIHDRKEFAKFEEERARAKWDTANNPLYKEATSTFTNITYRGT
Protocol: as §1
To more directly monitor changes in integrin conformation, a series of antibodies (mAbs) were used that react with ligand-bound or activated states of β3 integrins. These LIBS mAbs used here recognize epitopes at three different sites within the stalk region of the β3 subunit that are masked in the “off” state and only become accessible when the integrin is “opened up” in the ligand-binding, activated conformation (37). When K562 cells transfected to express αvβ3 integrin were incubated with the LIBS1 or LIBS6 mAbs alone (dotted histograms in FIG. 2), little antibody binding above isotype control mAb or secondary mAb alone was detected. D3 mAb appeared to induce some activation of the integrin since its binding to αvβ3 (FIG. 2, dotted line) was several fold above that of controls. GRGDSP (SEQ ID NO: 19) peptide augments LIBS binding by stabilizing active conformations of the β3 integrin. […] The effect of the clasp peptides on the binding of each LIBS mAb was determined in the presence of 1 mM RGD peptide, but in the absence of Mn^++.

[1] = molecular target: wild-type human αvβ3 integrin on cells (human, UniProt P06756 31-1048; P05106 27-788); test: cell-based or functional assay
wild-type human αvβ3 integrin on cells, sequence (P06756 31-1048, chain 1 of 2): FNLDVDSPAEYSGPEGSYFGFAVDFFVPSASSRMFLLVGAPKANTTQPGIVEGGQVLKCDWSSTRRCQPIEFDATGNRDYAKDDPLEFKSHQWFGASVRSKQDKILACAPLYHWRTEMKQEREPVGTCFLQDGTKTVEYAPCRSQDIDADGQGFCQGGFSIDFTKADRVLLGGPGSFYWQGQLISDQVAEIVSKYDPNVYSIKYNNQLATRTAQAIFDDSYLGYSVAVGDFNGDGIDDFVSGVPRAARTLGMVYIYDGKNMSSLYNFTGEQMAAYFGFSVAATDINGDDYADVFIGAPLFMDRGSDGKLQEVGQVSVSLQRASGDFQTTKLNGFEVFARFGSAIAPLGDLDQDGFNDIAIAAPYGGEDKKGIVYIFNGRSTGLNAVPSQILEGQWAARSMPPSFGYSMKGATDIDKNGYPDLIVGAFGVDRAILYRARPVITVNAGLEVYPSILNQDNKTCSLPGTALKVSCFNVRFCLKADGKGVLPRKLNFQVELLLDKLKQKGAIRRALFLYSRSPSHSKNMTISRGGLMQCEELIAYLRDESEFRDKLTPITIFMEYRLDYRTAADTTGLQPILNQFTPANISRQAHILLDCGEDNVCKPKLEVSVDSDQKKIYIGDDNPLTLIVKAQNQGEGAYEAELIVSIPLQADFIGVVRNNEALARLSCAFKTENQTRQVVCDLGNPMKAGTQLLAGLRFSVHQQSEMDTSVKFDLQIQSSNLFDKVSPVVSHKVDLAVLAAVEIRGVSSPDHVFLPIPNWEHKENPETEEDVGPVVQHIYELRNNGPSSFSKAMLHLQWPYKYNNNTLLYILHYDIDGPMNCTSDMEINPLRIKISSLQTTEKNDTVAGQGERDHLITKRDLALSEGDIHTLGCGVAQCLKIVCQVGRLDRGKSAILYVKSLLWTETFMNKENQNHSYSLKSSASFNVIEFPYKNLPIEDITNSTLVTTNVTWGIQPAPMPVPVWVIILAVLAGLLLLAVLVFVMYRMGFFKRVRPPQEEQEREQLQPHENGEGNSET
wild-type human αvβ3 integrin on cells, sequence (P05106 27-788, chain 2 of 2): as the sequence (P05106 27-788) above

[2] = 100 μM clasp peptide, 30 min at 37°
[3] = 100 μM clasp peptide in the presence of 100 μM RGD, metabolically inactive human platelets

KRFYVVMWKK (listed as Homo sapiens) [4N1K]
increase in number of spread cells (C32 melanoma cells; 50 μM 4N1K): ~10 fold
C32 cell adhesion increased (C32 melanoma cells; 50 μM 4N1K, 30 min at 37°, no additions set at 100%): 400%

Nc1ncnc2c1ncn2[C@@H]1O[C@H](COP(=O)(O)OP(=O)(O)O)[C@@H](O)[C@H]1O [ADP]
LIBS binding to platelets (3 LIBS mAbs) (αIIbβ3 integrin; 50 μM ADP): Neither of these agonists was able to increase LIBS binding

[Mn+2] [Mn^++]
C32 cell adhesion to Vn (C32 melanoma cells; 2 mM MnSO4): increased adhesion
C32 cell spreading (C32 melanoma cells; 2 mM MnSO4): enhanced spreading
increase in number of spread cells (C32 melanoma cells; 2 mM MnSO4): ca. 3 fold
LIBS1 binding shift (αIIbβ3 integrin; 0.5 mM Mn++ added to 100 μM RGD, human platelets): further magnified
LIBS antibody binding shift (αvβ3 integrin; 0.5 mM Mn++ added to 1 mM GRGDSP): further augmented

YMESRADRK (listed as Homo sapiens) [P2484]
C32 cell adhesion (C32 melanoma cells; [2]): stimulated cell adhesion to an extent comparable to 4N1K
LIBS1 binding to αIIbβ3 (αIIbβ3 integrin; [3]): increased LIBS1 binding
LIBS1 binding to αIIbβ3 (αIIbβ3 integrin; 100 μM clasp peptide in the presence of 100 μM RGD, metabolically inactive human platelets, listed as αIIb clasp peptide): increased binding well above that with RGD alone
D3 LIBS antibody binding to platelets (αIIbβ3 integrin; human platelets): large rightward shifts
LIBS1 antibody binding (αvβ3 integrin): dramatically increased
LIBS1 antibody binding (αvβ3 integrin; listed as 2484): greater than that promoted by RGD plus Mn^++

KMDASAAVS (listed as Homo sapiens) [control peptide]
LIBS1 antibody binding (αvβ3 integrin): did not enhance LIBS1 binding

TTRTDTC (listed as Homo sapiens) [P2483]
C32 cell adhesion (C32 melanoma cells; [2]): stimulated cell adhesion to an extent comparable to 4N1K
LIBS1 binding to αIIbβ3 (αIIbβ3 integrin; [3]): unable to increase LIBS1 binding
LIBS1 binding to αIIbβ3 (αIIbβ3 integrin; 100 μM clasp peptide in the presence of 100 μM RGD, metabolically inactive human platelets, listed as β3 clasp peptide): failed to increase LIBS1 binding
D3 LIBS antibody binding to platelets (αIIbβ3 integrin; human platelets): marginally stimulated D3 binding
LIBS1 antibody binding (αvβ3 integrin): dramatically increased
LIBS1 antibody binding (αvβ3 integrin; listed as 2483): greater than that promoted by RGD plus Mn^++

thrombin receptor activating peptide [TRAP]
LIBS binding to platelets (3 LIBS mAbs) (αIIbβ3 integrin; 10 μM TRAP): Neither of these agonists was able to increase LIBS binding

GRGDSP
C32 cell adhesion (C32 melanoma cells; 0.5 mM GRGDSP): effectively reduced cell adhesion; also recorded: nearly eliminated
C32 cell spreading (C32 melanoma cells; 0.5 mM GRGDSP): nearly eliminated
LIBS1 binding to αIIbβ3 (αIIbβ3 integrin; 100 μM RGD, human platelets): sufficient to increase LIBS1 binding
LIBS6 binding to αIIbβ3 (αIIbβ3 integrin; 100 μM RGD, human platelets): not increased
LIBS1, LIBS6 or D3 antibody binding (fluorescence) (αvβ3 integrin): increase in fluorescence
LIBS1, LIBS6 or D3 antibody binding (fluorescence) (αvβ3 integrin; listed as RGD peptide): increase in D3 binding

YMESRADRK [P2484 (αIIb integrin clasp peptide, residues 313-321, YMESRADRK)]
C32 cell spreading on vitronectin [1]: 78 fold

TTRTDTC [P2483 (β3 integrin clasp peptide, residues 561-567, TTRTDTC)]
C32 cell spreading on vitronectin [1]: 9 fold
